Assay results as given in patent US20110009314A1, “Single-Chain Insulin Analogues and Pharmaceutical Formulations Thereof” (Novo Nordisk A/S, priority 2006, published 2011).

Test: Size exclusion chromatography (SEC, gelfiltration) migration of insulin analogues and mixtures relative to the standards X2 (monomer) and HSA
Type: physicochemical
Settings: D 1.2 mM, Zn 0.6 mM
Description: Migration of the insulin analogues and insulin analogue combinations were measured in relation to the standards mentioned below.
The test mixtures were formulated with conventional pharmaceutical adjuvants and additives. All mixtures were formulated with 16/16 mM phenol/cresol. Zinc was added as zinc acetate in various amounts. pH was 7.5.
Size exclusion chromatography (SEC) was performed essentially as described in Havelund et al. 2004 Pharmaceutical research, 21, 1498-1504. The chromatographic system was a Superose 6 HR PC 6/30 column (GE healthcare) eluted by tris-buffered isotonic saline (NaCl-140 mM, tris/HCl 10 mM, NaN3 0.01%, pH 7.5 at 37° C., injecting 1% of column volume and using a flow of 90 min per column volume and UV detection at 276 nm. The references were a stable insulin monomeric insulin X2 (AspB9, GluB27 human insulin, zinc free), a stable hexameric insulin: Co(III) insulin, albumin (HSA), and covalent albumin (formed in solution).

## Lys^B29(N^ε-(N-lithocholyl-γ-glutamyl)) des(B30) human insulin [Compound D]
  Measured SEC migration % HSA: 78%
  Measured SEC migration % X2: 15%
